This note sets out measurements from PMC4608764, “The Q Motif Is Involved in DNA Binding but Not ATP Binding in ChlR1 Helicase” (PLoS ONE, 2015).

In general, Km refers to the concentration of substrate that gives half-maximal velocity. Usually kcat stands for the number of substrate molecules converted per active site and unit of time at saturation.

The target in one series is T1, ChlR1 (DDX11), (Homo sapiens, UniProt Q96FC9, Q23A).
T1 sequence (Q96FC9 1-906 isoform Q96FC9-2 Q23A): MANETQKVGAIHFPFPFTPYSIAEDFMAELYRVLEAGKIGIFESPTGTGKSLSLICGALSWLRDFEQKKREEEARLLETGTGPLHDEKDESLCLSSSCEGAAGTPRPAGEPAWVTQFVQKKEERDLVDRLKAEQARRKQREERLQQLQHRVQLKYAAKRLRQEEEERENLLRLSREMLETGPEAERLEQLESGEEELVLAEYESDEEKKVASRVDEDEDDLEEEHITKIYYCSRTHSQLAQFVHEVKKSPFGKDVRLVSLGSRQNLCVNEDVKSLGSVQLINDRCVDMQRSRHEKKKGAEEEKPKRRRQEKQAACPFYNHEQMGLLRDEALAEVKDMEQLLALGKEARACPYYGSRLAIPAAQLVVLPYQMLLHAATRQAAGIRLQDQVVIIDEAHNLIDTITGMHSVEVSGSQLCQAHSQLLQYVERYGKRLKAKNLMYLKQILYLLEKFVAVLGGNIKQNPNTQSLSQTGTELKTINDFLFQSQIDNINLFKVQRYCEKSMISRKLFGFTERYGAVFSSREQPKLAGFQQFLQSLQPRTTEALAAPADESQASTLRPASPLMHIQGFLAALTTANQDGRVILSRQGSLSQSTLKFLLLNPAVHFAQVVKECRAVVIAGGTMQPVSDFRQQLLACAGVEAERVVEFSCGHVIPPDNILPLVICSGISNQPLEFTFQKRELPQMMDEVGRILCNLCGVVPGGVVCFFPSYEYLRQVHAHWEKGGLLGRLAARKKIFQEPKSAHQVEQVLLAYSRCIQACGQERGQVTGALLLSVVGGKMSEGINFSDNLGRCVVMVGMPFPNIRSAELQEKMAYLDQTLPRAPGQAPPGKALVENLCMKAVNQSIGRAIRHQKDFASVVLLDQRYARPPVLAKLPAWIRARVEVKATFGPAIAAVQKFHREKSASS
Kind of series: nitrocellulose filter-binding (dot blot) assay.

A further series has as its target T2, ChlR1 (DDX11), ChlR1-WT (Homo sapiens, UniProt Q96FC9).
T2 sequence (Q96FC9 1-906 isoform Q96FC9-2): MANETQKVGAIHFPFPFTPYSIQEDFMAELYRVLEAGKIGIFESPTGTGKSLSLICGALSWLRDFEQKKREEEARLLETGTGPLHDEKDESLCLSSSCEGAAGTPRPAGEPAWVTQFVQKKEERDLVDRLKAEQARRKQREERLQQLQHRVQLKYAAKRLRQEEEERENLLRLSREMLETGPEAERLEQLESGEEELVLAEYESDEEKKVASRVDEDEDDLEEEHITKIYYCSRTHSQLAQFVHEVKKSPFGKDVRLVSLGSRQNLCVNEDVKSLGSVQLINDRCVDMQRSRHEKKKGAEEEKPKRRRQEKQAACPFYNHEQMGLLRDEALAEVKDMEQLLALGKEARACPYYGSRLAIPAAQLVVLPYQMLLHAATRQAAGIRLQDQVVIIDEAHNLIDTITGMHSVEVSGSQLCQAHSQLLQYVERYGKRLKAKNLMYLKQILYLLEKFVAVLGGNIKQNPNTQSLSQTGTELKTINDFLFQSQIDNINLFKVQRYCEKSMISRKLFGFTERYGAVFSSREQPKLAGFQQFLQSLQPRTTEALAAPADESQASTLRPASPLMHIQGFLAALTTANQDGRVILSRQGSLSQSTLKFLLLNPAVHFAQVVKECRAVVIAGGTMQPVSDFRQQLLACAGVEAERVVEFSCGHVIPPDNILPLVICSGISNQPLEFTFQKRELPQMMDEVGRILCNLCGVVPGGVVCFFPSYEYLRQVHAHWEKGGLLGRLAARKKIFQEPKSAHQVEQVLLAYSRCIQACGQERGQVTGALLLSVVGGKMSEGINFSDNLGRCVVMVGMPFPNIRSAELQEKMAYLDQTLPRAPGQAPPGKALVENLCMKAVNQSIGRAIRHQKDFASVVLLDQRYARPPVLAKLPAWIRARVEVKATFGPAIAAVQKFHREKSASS
Kind of series: nitrocellulose filter-binding (dot blot) assay.

Substrate in series [1]: Nc1ncnc2c1ncn2[C@@H]1O[C@H](COP(=O)(O)OP(=O)(O)OP(=O)(O)O)[C@@H](O)[C@H]1O
Kind of series: [γ-32P]ATP hydrolysis, thin-layer chromatography. The conditions noted are these: 2.1 nM M13mp18 ssDNA, ATP 31-4000 μM, 1 mM Mg acetate, pH 7.5, 37 °C, 30 min, kcat measured separately at 8.5 mM ATP. It counts as biochemical, Homo sapiens.

The target of series [2] is T3, ChlR1-WT (Homo sapiens, UniProt Q96FC9-2 1-906).
T3 sequence: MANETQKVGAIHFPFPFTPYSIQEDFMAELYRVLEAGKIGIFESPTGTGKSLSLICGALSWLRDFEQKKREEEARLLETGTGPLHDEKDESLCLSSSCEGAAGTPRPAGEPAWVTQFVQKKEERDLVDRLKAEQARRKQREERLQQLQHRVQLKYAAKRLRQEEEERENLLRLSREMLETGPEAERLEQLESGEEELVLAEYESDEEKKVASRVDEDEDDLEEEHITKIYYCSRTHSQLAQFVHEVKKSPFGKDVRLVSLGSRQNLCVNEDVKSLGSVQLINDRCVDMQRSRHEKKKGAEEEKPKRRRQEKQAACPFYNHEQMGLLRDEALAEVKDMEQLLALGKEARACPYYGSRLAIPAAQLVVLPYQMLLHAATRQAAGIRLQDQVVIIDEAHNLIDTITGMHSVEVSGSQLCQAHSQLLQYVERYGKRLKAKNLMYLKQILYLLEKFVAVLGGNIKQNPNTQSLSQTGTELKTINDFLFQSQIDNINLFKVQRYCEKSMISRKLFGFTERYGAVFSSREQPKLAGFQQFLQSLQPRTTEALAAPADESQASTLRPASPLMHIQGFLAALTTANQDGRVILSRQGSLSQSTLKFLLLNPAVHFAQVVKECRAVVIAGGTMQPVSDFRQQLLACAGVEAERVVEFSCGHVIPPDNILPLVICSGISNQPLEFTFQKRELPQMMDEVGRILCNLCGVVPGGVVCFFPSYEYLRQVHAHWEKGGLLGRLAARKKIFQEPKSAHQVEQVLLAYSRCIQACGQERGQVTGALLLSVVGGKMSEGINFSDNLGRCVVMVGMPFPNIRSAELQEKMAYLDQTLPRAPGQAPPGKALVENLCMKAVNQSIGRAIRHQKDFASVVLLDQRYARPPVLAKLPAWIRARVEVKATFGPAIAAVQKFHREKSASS
Kind of series: fluorescence anisotropy; apparent Kd, no ATP, 21 C, 10 nM DNA; EMSA: 40 mM Tris-HCl pH 7.4, 25 mM KCl, 5 mM MgCl2, 2 mM DTT, 2% glycerol, 100 ng/uL BSA, no ATP, 0.5 nM DNA, room temp 30 min; anisotropy: same buffer, 21 C; filter binding: 25 mM Tris-HCl pH 7.5, 25 mM KOAc, 1 mM Mg(OAc)2, 1 mM DTT, 100 ug/mL BSA, 37 C 30 min. The conditions noted are these: protein: recombinant; tags: FLAG; fork, 19 bp duplex; 5' ssDNA tail 26 nt (DC26) and 3' ssDNA tail 25 nt (TSTEM25). A general note: Fluorescence polarisation rises when a labelled molecule tumbles more slowly, as on binding a larger partner.

The target of series [3] is T4, ChlR1-Q23A (Homo sapiens, UniProt Q96FC9-2 1-906, Q23A).
T4 sequence: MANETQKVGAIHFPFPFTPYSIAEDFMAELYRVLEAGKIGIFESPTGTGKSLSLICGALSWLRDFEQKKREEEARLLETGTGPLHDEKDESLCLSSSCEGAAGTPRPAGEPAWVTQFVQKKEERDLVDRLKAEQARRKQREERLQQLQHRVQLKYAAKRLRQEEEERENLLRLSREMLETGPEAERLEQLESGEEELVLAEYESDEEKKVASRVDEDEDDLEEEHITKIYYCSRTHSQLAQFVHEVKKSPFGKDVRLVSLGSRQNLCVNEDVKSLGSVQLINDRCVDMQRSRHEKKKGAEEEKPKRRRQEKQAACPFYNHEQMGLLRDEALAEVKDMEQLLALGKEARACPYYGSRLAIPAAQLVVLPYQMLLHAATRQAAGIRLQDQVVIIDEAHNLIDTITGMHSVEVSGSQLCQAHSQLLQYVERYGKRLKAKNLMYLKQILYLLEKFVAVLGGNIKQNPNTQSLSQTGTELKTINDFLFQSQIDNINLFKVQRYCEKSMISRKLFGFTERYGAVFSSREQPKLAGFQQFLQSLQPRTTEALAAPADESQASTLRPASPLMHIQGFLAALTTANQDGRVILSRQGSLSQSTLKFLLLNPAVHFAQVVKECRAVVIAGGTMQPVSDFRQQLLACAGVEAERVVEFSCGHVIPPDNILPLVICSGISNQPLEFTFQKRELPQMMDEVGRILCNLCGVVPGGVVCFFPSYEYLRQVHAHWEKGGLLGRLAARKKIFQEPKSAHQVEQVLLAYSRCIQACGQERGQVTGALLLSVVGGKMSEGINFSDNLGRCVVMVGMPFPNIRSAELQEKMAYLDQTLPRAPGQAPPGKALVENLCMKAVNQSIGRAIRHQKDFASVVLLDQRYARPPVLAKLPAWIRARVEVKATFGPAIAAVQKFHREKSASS
The description is as above. The conditions noted are these: protein: recombinant; tags: FLAG; fork, 19 bp duplex; 5' ssDNA tail 26 nt (DC26) and 3' ssDNA tail 25 nt (TSTEM25).

The target of series [4] is T3, ChlR1-WT. Kind of series: filter binding; 37 C, 1 mM Mg(OAc)2; EMSA: 40 mM Tris-HCl pH 7.4, 25 mM KCl, 5 mM MgCl2, 2 mM DTT, 2% glycerol, 100 ng/uL BSA, no ATP, 0.5 nM DNA, room temp 30 min; anisotropy: same buffer, 21 C; filter binding: 25 mM Tris-HCl pH 7.5, 25 mM KOAc, 1 mM Mg(OAc)2, 1 mM DTT, 100 ug/mL BSA, 37 C 30 min. The conditions noted are these: protein: recombinant; tags: FLAG; label: 32P (5' end); fork, 19 bp duplex; 5' ssDNA tail 26 nt (DC26) and 3' ssDNA tail 25 nt (TSTEM25). A general note: Mobility shift assays separate free from complexed probe on a gel.

Series [5] addresses T4, ChlR1-Q23A. The description is as above. The conditions noted are these: protein: recombinant; tags: FLAG; label: 32P (5' end); fork, 19 bp duplex; 5' ssDNA tail 26 nt (DC26) and 3' ssDNA tail 25 nt (TSTEM25).

On to `Nc1ncnc2c1ncn2[C@@H]1O[C@H](COP(=O)(O)OP(=O)(O)OP(=O)(O)O)[C@@H](O)[C@H]1O` [ATP], for which the Kd on ChlR1 (DDX11), was 43.8 nM; on ChlR1 (DDX11), ChlR1-WT, 51.8 nM.

B1: ChlR1 (DDX11), ChlR1-WT (Homo sapiens) (protein)
chain: MANETQKVGAIHFPFPFTPYSIQEDFMAELYRVLEAGKIGIFESPTGTGKSLSLICGALSWLRDFEQKKREEEARLLETGTGPLHDEKDESLCLSSSCEGAAGTPRPAGEPAWVTQFVQKKEERDLVDRLKAEQARRKQREERLQQLQHRVQLKYAAKRLRQEEEERENLLRLSREMLETGPEAERLEQLESGEEELVLAEYESDEEKKVASRVDEDEDDLEEEHITKIYYCSRTHSQLAQFVHEVKKSPFGKDVRLVSLGSRQNLCVNEDVKSLGSVQLINDRCVDMQRSRHEKKKGAEEEKPKRRRQEKQAACPFYNHEQMGLLRDEALAEVKDMEQLLALGKEARACPYYGSRLAIPAAQLVVLPYQMLLHAATRQAAGIRLQDQVVIIDEAHNLIDTITGMHSVEVSGSQLCQAHSQLLQYVERYGKRLKAKNLMYLKQILYLLEKFVAVLGGNIKQNPNTQSLSQTGTELKTINDFLFQSQIDNINLFKVQRYCEKSMISRKLFGFTERYGAVFSSREQPKLAGFQQFLQSLQPRTTEALAAPADESQASTLRPASPLMHIQGFLAALTTANQDGRVILSRQGSLSQSTLKFLLLNPAVHFAQVVKECRAVVIAGGTMQPVSDFRQQLLACAGVEAERVVEFSCGHVIPPDNILPLVICSGISNQPLEFTFQKRELPQMMDEVGRILCNLCGVVPGGVVCFFPSYEYLRQVHAHWEKGGLLGRLAARKKIFQEPKSAHQVEQVLLAYSRCIQACGQERGQVTGALLLSVVGGKMSEGINFSDNLGRCVVMVGMPFPNIRSAELQEKMAYLDQTLPRAPGQAPPGKALVENLCMKAVNQSIGRAIRHQKDFASVVLLDQRYARPPVLAKLPAWIRARVEVKATFGPAIAAVQKFHREKSASS
With B1, in series [1], the Km was found to be 415.7 ± 58.4 µM and the kcat turned out to be 1073.3 ± 46.7 s⁻¹.

B2: Forked duplex (DC26/TSTEM25), fluorescein (dsDNA)
DNA 1: TTTTTTTTTTTTTTTTTTTTTTCCCAGTAAAACGACGGCCAGTGC
DNA 2: GCACTGGCCGTCGTTTTACGGTCGTGACTGGGAAAACCCTGGCG
On to B2, for which the Kd with ChlR1-WT [2] was 520 nM; in the series with ChlR1-Q23A [3] it was 1000 nM.

B3: Forked duplex (DC26/TSTEM25) (dsDNA)
DNA 1: TTTTTTTTTTTTTTTTTTTTTTCCCAGTAAAACGACGGCCAGTGC
DNA 2: GCACTGGCCGTCGTTTTACGGTCGTGACTGGGAAAACCCTGGCG
As to B3, the Kd with ChlR1-WT [4] was 106 nM; with ChlR1-Q23A [5] it was 398 nM.
